These results are taken from PMC4780765, “Role of Interaction and Nucleoside Diphosphate Kinase B in Regulation of the Cystic Fibrosis Transmembrane Conductance Regulator Function by cAMP-Dependent Protein Kinase A” (PLoS ONE, 2016).

Experiment [1] addresses T1, cystic fibrosis transmembrane conductance regulator (human (endogenous in 16HBE14o-), UniProt P13569 1-1480).
T1 construct: CFTR, endogenous in the wild type human bronchial epithelial cell line 16HBE14o-; band at 175 kDa; also called CFTR; ABCC7; source: endogenous, 16HBE14o- cells (membrane fraction, lysates, immunoprecipitates)
Nature of the experiment: far-Western, overlay or dot blot; blot of a CFTR immunoprecipitate or of 16HBE14o- membrane proteins, 100 μg, overlaid with 1 μg recombinant NDPK-B without or with cAMP or 8-Br-cAMP (100 μM); probed for NDPK-B. To be noted: one partner purified.

For experiment [2], the target named is T1, cystic fibrosis transmembrane …. Nature of the experiment: co-IP; CFTR or NDPK-B immunoprecipitates from 16HBE14o- membranes; cells untreated, treated with FSK (10 μM)/IBMX (100 μM) for 30 min, or with PKI (100 nM) or H-89 (1 μM) for 5 min before FSK/IBMX. The note with it: partners not purified.
Experiment [3] has the same target. The experiment in a line: far-Western, overlay or dot blot; blot of SDS-PAGE-separated 16HBE14o- membrane proteins (100 μg) overlaid with 16HBE14o- cytosol proteins (0.5 mg) in TBS with 5% milk, 60 min at room temperature, without or with cAMP, 8-Br-cAMP or dioctanoyl-cAMP (100 μM); probed for NDPK-B. To be noted: partners not purified.

T1 sequence (P13569 whole entry): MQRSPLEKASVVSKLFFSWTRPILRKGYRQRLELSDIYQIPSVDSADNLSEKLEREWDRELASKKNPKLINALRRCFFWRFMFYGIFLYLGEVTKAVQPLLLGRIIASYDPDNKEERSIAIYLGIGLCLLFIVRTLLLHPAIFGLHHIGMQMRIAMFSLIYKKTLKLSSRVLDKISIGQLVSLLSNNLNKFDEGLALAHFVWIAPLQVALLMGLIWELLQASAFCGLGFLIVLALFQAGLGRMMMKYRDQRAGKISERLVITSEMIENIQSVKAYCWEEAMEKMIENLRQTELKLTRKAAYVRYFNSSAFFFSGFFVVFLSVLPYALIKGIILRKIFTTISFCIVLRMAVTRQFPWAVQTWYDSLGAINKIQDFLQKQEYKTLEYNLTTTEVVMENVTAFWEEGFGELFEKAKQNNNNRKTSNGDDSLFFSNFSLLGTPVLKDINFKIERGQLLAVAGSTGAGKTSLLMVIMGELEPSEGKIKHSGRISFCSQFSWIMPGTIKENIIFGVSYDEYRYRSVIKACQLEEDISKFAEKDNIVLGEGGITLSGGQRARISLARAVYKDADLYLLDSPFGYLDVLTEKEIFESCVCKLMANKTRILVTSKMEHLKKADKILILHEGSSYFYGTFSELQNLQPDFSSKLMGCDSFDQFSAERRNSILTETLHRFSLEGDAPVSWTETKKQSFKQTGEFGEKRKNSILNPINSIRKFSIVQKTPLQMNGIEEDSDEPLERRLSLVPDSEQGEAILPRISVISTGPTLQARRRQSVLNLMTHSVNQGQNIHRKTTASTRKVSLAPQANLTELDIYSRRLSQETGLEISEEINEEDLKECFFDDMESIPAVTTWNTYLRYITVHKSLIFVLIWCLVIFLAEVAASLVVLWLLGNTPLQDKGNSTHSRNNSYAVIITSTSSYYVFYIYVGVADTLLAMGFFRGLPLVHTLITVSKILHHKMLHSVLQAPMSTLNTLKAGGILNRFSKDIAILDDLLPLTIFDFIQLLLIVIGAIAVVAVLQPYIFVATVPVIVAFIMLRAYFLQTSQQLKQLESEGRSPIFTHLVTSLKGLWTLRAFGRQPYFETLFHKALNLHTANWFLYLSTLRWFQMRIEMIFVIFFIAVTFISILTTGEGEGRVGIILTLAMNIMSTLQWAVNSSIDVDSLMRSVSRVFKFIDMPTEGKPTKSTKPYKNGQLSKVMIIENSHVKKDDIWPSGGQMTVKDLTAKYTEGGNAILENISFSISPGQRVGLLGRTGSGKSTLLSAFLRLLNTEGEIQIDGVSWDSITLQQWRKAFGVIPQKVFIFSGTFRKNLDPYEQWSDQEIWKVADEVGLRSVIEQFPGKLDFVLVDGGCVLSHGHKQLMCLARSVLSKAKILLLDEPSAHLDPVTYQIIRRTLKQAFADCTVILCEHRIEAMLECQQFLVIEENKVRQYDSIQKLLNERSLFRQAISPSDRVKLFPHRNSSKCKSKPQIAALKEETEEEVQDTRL

B1: human recombinant nucleoside diphosphate kinase B isoform (natural protein)
chain: ANLERTFIAIKPDGVQRGLVGEIIKRFEQKGFRLVAMKFLRASEEHLKQHYIDLKDRPFFPGLVKYMNSGPVVAMVWEGLNVVKTGRVMLGETNPADSKPGTIRGDFCIQVGRNIIHGSDSVKSAEKEISLWFKPEELVDYKSCAHDWVYE
notes: human recombinant nucleoside diphosphate kinase B (NDPK-B, NM23-H2); 16 kDa on the gel; also called NDPK-B; purified NDPK-B; source: recombinant, purified; prepared and provided by Professor Ioan Lascu
Consider B1, for which the “fold increase of NDPK-B staining at 175 kDa with 8-Br-cAMP (100 μM) over overlay without cAMP” value in experiment [1] was 20 fold.

B2: nucleoside diphosphate kinase B (natural protein, human (endogenous in 16HBE14o-), UniProt P22392 1-152, looked up)
chain: MANLERTFIAIKPDGVQRGLVGEIIKRFEQKGFRLVAMKFLRASEEHLKQHYIDLKDRPFFPGLVKYMNSGPVVAMVWEGLNVVKTGRVMLGETNPADSKPGTIRGDFCIQVGRNIIHGSDSVKSAEKEISLWFKPEELVDYKSCAHDWVYE
notes: nucleoside diphosphate kinase B (NDPK-B, NM23-H2), endogenous in the human bronchial epithelial cell line 16HBE14o-; also called NDPK-B; NDPK B; source: endogenous, 16HBE14o- cells (membrane and cytosol fractions, lysates)
B2: the “fold increase of co-immunoprecipitation with FSK/IBMX over untreated cells” value in experiment [2] turned out to be 3 fold. In addition, the “fold increase of NDPK-B staining at 175 kDa with dioctanoyl cAMP (100 μM) over overlay without cAMP” value in experiment [3] is 20 fold.
